Here are results for one molecule from patent publication US10456446B2, “Use of human small leucine zipper protein in osteogenesis procedure” (Korea University Research and Business Foundation, priority 2013, dated 2019).

One assay has as its target T1, PPARγ2 (Homo sapiens, UniProt P37231).
T1 construct: expressed in transfected cells; host or cells: 293T
T1 sequence (P37231 1-505): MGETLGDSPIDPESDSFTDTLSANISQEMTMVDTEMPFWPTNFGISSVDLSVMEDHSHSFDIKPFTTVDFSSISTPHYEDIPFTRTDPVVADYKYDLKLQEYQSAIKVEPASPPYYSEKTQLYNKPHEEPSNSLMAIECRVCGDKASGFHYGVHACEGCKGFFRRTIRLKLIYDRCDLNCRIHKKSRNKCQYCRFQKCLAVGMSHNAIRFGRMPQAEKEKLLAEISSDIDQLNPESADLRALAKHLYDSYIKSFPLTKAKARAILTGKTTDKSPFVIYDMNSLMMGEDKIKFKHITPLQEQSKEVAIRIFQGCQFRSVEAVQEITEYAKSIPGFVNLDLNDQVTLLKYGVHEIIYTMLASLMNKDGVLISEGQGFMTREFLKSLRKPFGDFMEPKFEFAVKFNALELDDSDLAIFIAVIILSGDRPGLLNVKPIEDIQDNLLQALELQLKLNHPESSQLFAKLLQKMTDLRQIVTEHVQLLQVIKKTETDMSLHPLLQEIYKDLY
Nature of the assay: Fluorescence microscopy, subcellular localization with PPARγ2 in C3H10T1/2 cells. It counts as cell-based. The following applies: GFP-PPARγ2 and Flag-sLZIP in C3H10T1/2 cells. Here is the method:
C3H10T1/2 cells were transiently ci-transfected with Flag-sLZIP, GFP-PPARγ2 or GFP-sLZIP, and HDAC3 was grown on cover slip. After 24 hours, the cells were fixed with 4% paraformaldehyde for 10 minutes and permeabilized 0.2% Triton-X 100 for 5 minutes. The cells were incubated with 1% BSA for one hour, and then incubated with anti-Flag and anti-HDAC3 antibodies overnight at 4° C. The cells were washed with PBS, and then were incubated with Texas Red-labeled antibodies for 2 hours. A cover slide was washed with PBS, and mounted on and examined using a LSM 510 META confocal microscopy (Carl Zeiss, Jena, Germany).
In order to examine whether the transcriptional activity of PPARγ2 is regulated by interaction with sLZIP, interaction between sLZIP and PPARγ2 was examined. For this purpose, 293T cells were transfected with GST-sLZIP and Myc-PPARγ2. Cell lysates were obtained and GST pull-down analysis was performed using a glutathione 4B bead. A protein complex was analyzed in SDS-PAGE and then immunoblotted with specific antibodies (FIG. 2A). […] Proteins bound to the bead were analyzed in SDS-PAGE, and then immunoblotted with anti-PPARγ2 and anti-His antibodies (FIG. 2C). GFP-PPARγ2 and Flag-sLZIP constructs were expressed in C3H10T1/2 cells, and analyzed using mouse anti-Flag and Texas Red-labeled anti-mouse antibodies under a fluorescence microscope. […]

In the next assay the test system is sLZIP TG mouse embryos. Nature of the assay: Ossification in vivo, alcian blue and alizarin red staining of sLZIP TG mouse embryos on E17.5. The following applies: E17.5, compared with wild type littermate. The source says:
In order to generate human sLZIP transgenic (TG) mice, sLZIP genes were cloned into a pCMV-flag expression vector. The sLZIP TG mice were generated by Macrogen, Inc (Seoul, Korea). Transgenic founders were mated with wild type C57BL/6 mice to produce F1 heterozygotes. F1-F4 generations were genetically screened for transgenes at an age of 2 weeks old. The following two primers were used to amplify genomic DNA in order to identify wild type and TG mice: 5′-GGACGATGATGACAAGGACT-3′ (SEQ ID NO: 25) and 5′-GTCAGAGGAGTACATGCTGCT-3′(SEQ ID NO: 26).
Therefore, in order to characterize a potential role of sLZIP in the transcriptional activity of Runx2 by inhibiting the transcriptional activity of PPARγ2, the transcriptional activity of Runx2 was examined. For this purpose, 293T cells were temporarily transfected with Runx2 (0.5 μg), β-galactosidase (0.1 μg), 6 copies of Runx2 response elements (0.2 μg) and sLZIP at different contents (0.1 μg to 0.5 μg) (FIG. 7A). PPARγ2 (0.5 μg), β-galactosidase, Runx2, 6 copies of Runx2 response elements and sLZIP (0.5 μg) were expressed in the 293T cells (FIG. 7B). 293T cells were temporarily transfected with HDAC3 (0.5 μg), Runx2, β-galactosidase, 6 copies of Runx2 response elements and sLZIP at different contents (0.25 and 0.5 μg) (FIG. 7C). A promoter activity was measured by luciferase analysis. […]

B1: sLZIP: human small leucine-zipper protein, isoform of LZIP, 354 amino acids, no transmembrane domain, GenBank FJ263669, SEQ ID NO: 1 (protein, listed as Homo sapiens)
chain: MELELDAGDQDLLAFLLEESGDLGTAPDEAVRAPLDWALPLSEVPSDWEVDDLLCSLLSPPASLNILSSSNPCLVHHDHTYSLPRETVSMDLESESCRKEGTQMTPQHMEELAEQEIARLVLTDEEKSLLEKEGLILPETLPLTKTEEQILKRVRRKIRNKRSAQESRRKKKVYVGGLESRVLKYTAQNMELQNKVQLLEEQNLSLLDQLRKLQAMVIEISNKTSSSSMYSSDTRGSLPAEHGVLSRQLRALPSEDPYQLELPALQSEVPKDSTHQWLDGSDCVLQAPGNTSCLLHYMPQAPSAEPPLEWPFPDLFSEPLCRGPILPLQANLTRKGGWLPTGSPSVILQDRYSG
As for B1, the “subcellular localization of sLZIP and PPARγ2” value in the assay with PPARγ2 is listed as “localized in the nucleus together with PPARγ2”. For the same molecule, in the assay with sLZIP TG mouse embryos, the “ossification of skull and limb” value is recorded as “further promoted ossification”.
